{
  "source": "patent US6428985",
  "about": "(REGENTS OF THE UNIVERSITY OF MICHIGAN, dated 2002)",
  "binders": {"B1": {"name": "purified hIL-10-myc-his (human IL-10 with carboxyl terminal myc-his tag) (ligand)", "chain": "SPGQGTQSENSCTHFPGNLPNMLRDLRDAFSRVKTFFQMKDQLDNLLLKESLLEDFKGYLGCQALSEMIQFYLEEVMPQAENQDPDIKAHVNSLGENLKTLRLRLRRCHRFLPCENKSKAVEQVKNAFNKLQEKGIYKAMSEFDIFINYIEAYMTMKIRN", "notes": "also called C-terminal myc-his tagged hIL-10; not shown: C-terminal myc-his tag from the pcDNA3.1-myc-his vector"}, "B2": {"name": "hIL-10 with amino terminal FLAG tag (pFLAGCMV-1 construct) (ligand, not shown: small tags and cut ends)", "chain": "B1 chain", "notes": "also called amino terminal FLAG construct of hIL-10"}, "B3": {"name": "purified hIL-10(I87A)-myc-his (human IL-10 with the single mutation, carboxyl terminal myc-his tag) (ligand)", "chain": "B1 chain with I87A", "notes": "also called hIL-10(187A); Ala87 version of IL-10; not shown: C-terminal myc-his tag from the pcDNA3.1-myc-his vector"}},
  "key": {"[1]": {"target": "T1, mIL-10R1 on Ba/F3-mIL-10R1 cells (mouse pro-B cell line stably transfected with mIL-10R1) (murine, UniProt Q61727 17-575)", "T1 construct": "whole, on cells; also called IL-10 receptor", "T1 sequence (looked up)": "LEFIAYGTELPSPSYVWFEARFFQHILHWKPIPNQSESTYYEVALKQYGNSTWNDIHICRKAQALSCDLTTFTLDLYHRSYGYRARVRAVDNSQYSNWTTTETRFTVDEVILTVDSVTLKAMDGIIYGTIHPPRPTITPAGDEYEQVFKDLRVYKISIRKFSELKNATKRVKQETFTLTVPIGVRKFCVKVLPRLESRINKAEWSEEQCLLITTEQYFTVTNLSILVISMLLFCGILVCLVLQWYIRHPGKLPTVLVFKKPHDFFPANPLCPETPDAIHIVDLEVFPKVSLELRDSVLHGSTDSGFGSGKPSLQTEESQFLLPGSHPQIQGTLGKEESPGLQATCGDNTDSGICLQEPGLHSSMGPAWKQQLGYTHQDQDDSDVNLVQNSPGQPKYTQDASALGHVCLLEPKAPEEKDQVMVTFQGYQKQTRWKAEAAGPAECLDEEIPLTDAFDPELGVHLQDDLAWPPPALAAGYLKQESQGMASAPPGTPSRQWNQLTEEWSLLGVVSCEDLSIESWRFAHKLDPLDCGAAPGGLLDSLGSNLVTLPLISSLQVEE", "experiment": "flow cytometry on Ba/F3-mIL-10R1 cells, 100 ng purified IL-10-myc-his, 4° C. for 2 h"}, "[2]": {"target": "T1, mIL-10R1 on Ba/F3-mIL-10R1 cells (mouse …)", "experiment": "flow cytometry on Ba/F3-mIL-10R1 cells"}},
  "note": "Changes are numbered by the printed parent chain. Names may count otherwise.",
  "data": [
    {"binder": "B1", "values": [
      {"measurement": "binding result", "setting": "[1]", "value": "binds"}
    ]},
    {"binder": "B2", "values": [
      {"measurement": "binding result", "setting": "[2]", "value": "binds"}
    ]},
    {"binder": "B3", "values": [
      {"measurement": "binding result", "setting": "[1]", "value": "binds"}
    ]}
  ]
}
